Data published in publication PMC8549803, “Dithiolane quartets: thiol-mediated uptake enables cytosolic delivery in deep tissue” (Chemical Science, 2021).
Entries after “also recorded” stand apart in the source; their conditions may differ. Read-outs that look alike come from different tables or passages of the source.

How the values were obtained:
HGM cells = assay: 2D HC-CAPA (chloroalkane penetration assay), cytosolic delivery in 2D cell culture; format: cell-based; details: 4 h; for CP50, half maximal cell-penetration concentration: HGM cells (HeLa stably expressing HaloTag-GFP-Mito), complexes 0 to max 20 μM in Leibovitz's, 37 °C, then HRO 2 5 μM 15 min, high-content fluorescence imaging, Hill analysis of DRCs, duplicates; for Uptake activity in 2D CAPA, in words: HGM cells, up to 20 μM
Experimental: Cytosolic delivery into 2D cell culture was determined first using the chloroalkane penetration assay (CAPA).[55–57] This assay has been introduced recently by Kritzer et al. as a reliable tool to quantitatively measure cytosolic delivery.[55–57] The CAPA method operates with HGM cells, i.e. HeLa cells that stably express a fusion protein of HaloTag and GFP on mitochondria (Fig. 1c). Chloroalkylated transporters that reach the cytosol will react with these HaloTags, while all unused HaloTags will react with subsequently added chloroalkylated TAMRA 2. The result is decreasing TAMRA fluorescence with increasing uptake of transporters. Automated high-content high-throughput imaging has been introduced to measure TAMRA fluorescence only inside of healthy cells and generate high-precision dose–response curves (DRCs, Fig. 3) while simultaneously reporting on cell viability.[50] The uptake efficiency is reported as CP50 value, that is the transporter concentration needed to inhibit HaloTag labeling with 2 by 50%, determined by the Hill analysis of DRCs. In conventional 2D cell culture, complex 1 afforded CP50 = 3.6 ± 0.3 μM (Fig. 2, 3a, filled circles, Table 1).
Complex 22 was similarly prepared using 6 µL of peptide 12 (10 mM in DMSO, 3 […]
Complex 23 was similarly prepared using 4 µL of peptide 13 (10 mM in DMSO, 2 […]
Complex 24 was similarly prepared using 2 µL each of peptides 12 and 13 (10 mM in DMSO, 1 equivalent each).
Complex 25 was similarly prepared using 4 µL of peptide 14 (10 mM in DMSO, 2 […]
Complex 26 was similarly prepared using 2 µL each of peptides 13 and 14 (10 mM in […]
HeLa cells stably expressing the HaloTag-GFP-Mito fusion protein (HGM): The cells were originally designed by the Chenoweth lab as described in ref. S10. They were cultured using the described procedure in ref. S4.
3.2.1 General HC-CAPA protocol
As in ref. S11, HGM cells were seeded at 8 ×10^4 cells/mL in FluoroBrite DMEM + 10% FBS on μ-Plates 96-well ibiTreat sterile and kept at 37 °C with 5% CO2 overnight. Next day, cells were washed with PBS ([…]) and the media were exchanged to Leibovitz’s (4 × 150 μL/well) using a plate washer, keeping a final volume of 135 μL/well. Then, serial dilutions of the corresponding complexes 1, 15-26 in PBS were prepared in a 96-well V-bottom plate and added to the μ-Plate containing the cells (15 μL/well, 10x final concentration in PBS) to reach a final volume of 150 μL/well (0 to maximum 20 μM). Cells were incubated for 4 h at […]
37 °C with 5% CO2. After this, cells were washed again and HRO 2 was added (15 μL/well, 50 μM in PBS) to reach a final volume of 150 μL/well (5 μM), except for the control wells, where only PBS was added (15 μL/well). After 15 min of incubation at 37 °C with 5% CO 2, the plate was washed again. Then, Hoechst 33342 was added (15 μL/well, 170 μM in PBS) to reach a final volume of 150 μL/well (17 μM). After 15 min of incubation at 37 °C with 5% CO2, the plate was washed one last time and the cells were kept in clean Leibovitz’s media.
During imaging, samples were kept at 37 °C with 5% CO2. A total of 16 images/well at 40x were recorded, using three channels: blue (excitation filter: 37 7/50 nm, emission filter: 477/60 nm, exposure time: 10 ms), green (excitation filter: 475/34 nm, emission filter: 536/40 nm, exposure time: 20 ms) and red (excitation filter: 531/40 nm, emission filter: 593/40 nm, […]
(§1) Duplicates were performed for each condition.
Fig. S2 Blue channel recording the Hoechst 33342 localization in the nuclei (left), green channel recording the GFP signal in the mitochondria (middle) and red channel recording the signal from HRO 2 (right) covalently attached to HaloTag protein in the mitochondr ia. Scale […]
3.2.2. HC-CAPA analysis protocol
As in ref. S11, for each cell, the DAPI and GFP channel images were used for the segmentation of the nuclei and whole cell body, respectively. Three successive filters have then been used for the cell selection process: […]

HGM spheroids = assay: 3D HC-CAPA, cytosolic delivery in multicellular spheroids; format: cell-based; details: for Penetration of HGM spheroids (suppression of emission of CAPA probe 2), in words: 20 μM, 6 h, then 2 for 45 min, cross-sectional CSDM images 80 μm from surface; for SP50, half maximal spheroid-penetration concentration: 3D HC-CAPA, HGM spheroids 350–400 μm, complexes 0 to max 20 μM, 2 or 6 h, 37 °C, then HRO 2 5 μM 45 min, average TAMRA intensity over entire spheroid, Hill analysis of DRCs, duplicates
Experimental: Spheroids of HGM cells with an average size of 350–400 μm were prepared in cell-repellent U-bottom 96-well plates following standard procedures (Fig. 4a).[1–26] In cross-sectional confocal spinning disc microscopy (CSDM) images taken 80 μm from the surface, GFP emission was homogeneously distributed (Fig. 4b). Similarly the homogeneous cross-sectional TAMRA emission upon addition of 2 was consistent with unhindered passive diffusion of the small, cationic CAPA probe across the spheroid (Fig. 4c, m, red circles, 1c). […] Line-scan analysis of the TAMRA intensity along the cross-section in the CSDM image gave an almost linear decrease (Fig. 4m, green squares). […] Comparison of the line-scan analyses for 20 μM 19 after 2 h and 6 h incubation illustrated how transporter 19 penetrates the spheroids with time from the periphery to the center as expected for operational transcytosis (Fig. 4m, l vs. i). […] At c ∼ SP50, thiol-mediated delivery decreases linearly with increasing depth because the limited amount of transporter 19 provided is gradually consumed by kinetically competing direct translocation and irreversible reaction with the HaloTags on the mitochondria of the cells on the way into the spheroids. […]
HGM cells were seeded at 5 × 10^3 cells/mL in FluoroBrite DMEM + 10% FBS on NunclonTM SpheraTM U-bottom 96-well sterile μ-Plates and kept at 37 °C with 5% CO2 for 3 days. After the spheroids were formed, the medium was exchanged to Leibovitz’s (6 × 200 μL/well) using a Biotek MultiFloTM FX plate washer, keeping a final volume of 135 μL/well.
Then, serial dilutions of the corresponding complexes 18-20 in PBS were prepared in a 96-well V-bottom plate and added to the μ-Plate containing the spheroids (15 μL/well, 10x final concentration in PBS) to reach a final volume of 150 μL/well (0 to maximum 20 μM). Cells were incubated for 2 or 6 h at 37 °C with 5% CO2. After this, cells were washed again and HRO 2 was added (15 μL/well, 50 μM in PBS) to reach a final volume of 150 μL/well (5 μM), except for the control wells, where only PBS was added (15 μL/well). After 45 min of incubation at 37 °C with 5% CO2, the plate was washed again. Then, the plate was kept for 1 h at 37 °C with 5% CO2 and was washed again. During imaging, samples were kept at 37 °C with 5% CO2. A z-stack of 19 images/well (10 μm per step) at 10x were recorded, using two channels: green (excitation filter: 475/34 nm, emission filter: 536/40 nm, exposure time: 200 ms) and red (excitation filter: 531/40 nm, emission filter: 593/40 nm, exposure time: 200 ms), […]
as §1
Fig. S4 TL channel (left), Green channel recording the GFP signal in the mitochondria (middle left) and red channel recording the signal from HRO 2 (middle right) covalently attached to HaloTag protein in the mitochondria. Merged images showing colocalization of G FP and HRO 2 signals (right). Images are 2D projections of all planes. Scale bar: 100 μm.
3.3.2 3D HC-CAPA analysis protocol
For each spheroid, the TL and green channel images were used for the segmentation of the object. A gaussian filter was applied to blur the image and allow the creation of the spheroid […]
Fig. S5 Green channel recording the GFP signal in the mitochondria (left), applied Gaussian filter (middle) to generate the spheroid mask in white (right). Images are 2D projections of all planes. Scale bar: 100 μm. […]
3.3.2 3D HC-CAPA results for uptake quantification […]

[1] = Solubility of streptavidin/peptide complexes in water; format: physicochemical
Experimental: However, this interpretation should not be overestimated because the CP50 = 2.5 ± 0.2 μM remained near those of single dithiolane quartets in 19 and 1.

[2] = streptavidin/peptide complex in water

Substance: EUEUEU [compound 1]
- CP50, half maximal cell-penetration concentration (HGM cells): 3.6 ± 0.3 µM
- Penetration of HGM spheroids (suppression of emission of CAPA probe 2), in words (HGM spheroids): suppressed fluorescence throughout the spheroid

Substance: EUUUUU [streptavidin complex of EUUUUU peptide, insoluble, not finalized]
- Solubility of complex in water, in words [1]: insoluble in water

Substance: EUEUeU [compound 16, 1 : 3 streptavidin 3/peptide 6 (EUEUeU) complex]
- CP50, half maximal cell-penetration concentration (HGM cells): 16 ± 2 µM

Substance: EEEUUU [compound 19, 1 : 3 streptavidin 3/peptide 9 (EEEUUU) complex]
- CP50, half maximal cell-penetration concentration (HGM cells): 3.8 ± 0.2 µM
- Uptake activity in 2D CAPA, in words (HGM cells): preserved activity
- Penetration of HGM spheroids (suppression of emission of CAPA probe 2), in words (HGM spheroids): almost complete disappearance of all fluorescence; also recorded: suppressed fluorescence throughout the spheroid
- SP50, half maximal spheroid-penetration concentration (HGM spheroids): 5.3 ± 0.9 µM

Substance: UUUEEE [compound 20, 1 : 3 streptavidin 3/peptide 10 (UUUEEE) complex]
- CP50, half maximal cell-penetration concentration (HGM cells): > 20 µM
- Uptake activity in 2D CAPA, in words (HGM cells): inactive
- SP50, half maximal spheroid-penetration concentration (HGM spheroids): 17 ± 6 µM

Substance: EEUUUU [compound 21, 1 : 3 streptavidin 3/peptide 11 (EEUUUU) complex]
- CP50, half maximal cell-penetration concentration (HGM cells): 2.5 ± 0.2 µM
- Uptake activity in 2D CAPA, in words (HGM cells): most active of all transporters

Substance: KKKKKK [compound 25, streptavidin 3/peptide 14 (KKKKKK) 1 : 2 complex, isostructural CPP control]
- CP50, half maximal cell-penetration concentration (HGM cells): 2.8 ± 0.3 µM
- Uptake activity in 2D CAPA, in words (HGM cells): in the range of the best dithiolane quartets
- Penetration of HGM spheroids (suppression of emission of CAPA probe 2), in words (HGM spheroids): failed to penetrate HGM spheroids

Substance: UUUUUU [compound 22]
- CP50, half maximal cell-penetration concentration (HGM cells): >20 µM
- Solubility of complex in water, in words [1, 2]: insoluble in water

Substance: EEEEEE [compound 23, streptavidin 3/peptide 13 (EEEEEE) 1 : 2 complex]
- CP50, half maximal cell-penetration concentration (HGM cells): >20 µM
- Uptake activity in 2D CAPA, in words (HGM cells): inactive
- Solubility of complex in water, in words [1, 2]: soluble
